Source: a protein production outcome set (Wang et al. 2014)

Assay: label from the status in PepcDB records

Sequence | protein production
MKLDWNGIDTVLLDMDGTLLDRHFDDHFWLEHVPKRYAAQNGIPLDEAKKLLYALFRSQERTLNWTDLDYWSERLGLDIPVLKQEIDHLIAVHPGVVEFLVFLRRHGKQAWLVTNAHGKTLSLKMRKTRLGPYFTGIISAHDLGLPKEDVRFWEKLQERVPYEPSRTLLGEDSETNLGTAEEYGIAHLIYVSRYSSTVTPTASDRYASIHYFTQLIPAAHTDET | failed
MPLFKFAIDVQYRSNVRDPRGETIERVLREEKGLPVKKLRLGKSIHLEVEAENKEKAYEIVKKACEELLVNPVVEEYEVREL | not failed
MTLTMGFIGFGKSANRYHLPYLKTRNNIKVKTIFVRQINEELAAPYEERGVYFTTDLDELLNDKEIQVVTICTPAHTHYELAKKVILAGKSVIVEKPFCDTVEHAKELLALGREKGVVVMPYQNRRFDGDFLAVKQVVEQGFLGDIIEIESHIDYFRPGSITHEAPKEEGSFYSLGIHTMDRMISLFGRPNTVTYDIRNNEVEGAVDNYFDVGLHYGNQLKIKLKTNHIVAKDYPRFIVHGTNGSFIKYGEDQQENDLKAGIMPESAGFGEDSPMYYGIAKYRNANGDWIEKQIKTPLGDYGRFYDAAYDTIVNGAPKLVKDEEAVTNIEILENGFAAPSPSVYKLEALHLNELEHHHHHH | not failed
MESAATAVVPPAAAATTATATDDNLQSSDSSSPADAVNRLIHAFSQRQQHLLDKTVPHVLYRWIACLCVVLIYIVRVYFVEGFYIITYAIGIYLLNLIIAFLSPQEDPEASLTSGGSLPTRRSDEYRPFVRRLPEFKFWLSIIRAFIIGFMMTFFEVFDVPVFWPILLFYWVMLFFLTMRKQIQHMIKYRYVPFSFGKKVCVSFSFLPSQN | failed
LVVSIRVQGDKRLSSLRRCCALTRYDAHKMSHDAFTVIKNCNTSGIQTEWSPPLTMLFLCATKFSASAP | failed
MSNRIKNIHYGTQRQQLKNLTKKEYQALREMCFLAKNLYNVGTYNVRQHYFNQGEHLNYEANYHVCKENENYKLLNSNIAQQILKEVDSSFRSFFGLIKLAKEGKYDFRGIKSPKYLDKEGFFSIIIGQIRIKEDGILNVPMSPAFKKLYGKVSIKVPQNILEKKIKEIRIIPKHKARFFEIQYCYEIPKSEEVSNQKNALAIDLGLENLCTCVTNLGDSFIIDGKRLKSVNQWANKQNDKIEALKLKKNITAITRKQFKVWNKRNNQVKDYVNKTCFYIIDYCVKNNIGNLIVGYNAKLEKSDNMERKIYRNFIRIPFGEIKGKLEYLCKIKNINFIRQEESYTSKSDFFADDFLPDINVDNVKKYDFKGERITRGQYKSSVGIIINADVNASLNILKKSQVVNLSNLQNNPQILKQPQRVRIS | failed
MNAINTKVTPTKRKQVALFSSDPNFKRDVATRLDALAIYDVRVSETDDFLKGPPADTRPGIVILDLGGGDLLGKPGIVEARALWATVPLIAVSDELTSEQTRVLVRMNASDWLHKPLDGKELLNAVTFHDTGNQ | not failed
MLAELFAVMAPVLFGAGVGYVWVRLGHAYPTEFVSRIVFNIGSPCLILATLAHTRVDLHSFGRMALASALICVCMAALGWAAARLGRQEWQVLVPAYSFPNVGNMGLPVCLYAFGEAGMTLAVAFYLIMSIGNFSLGVFWMSGERSWRSLLGNPILLSVLLALLLMGLDLQLPRWMANTVDLMAGLTIPLMLITLGVSLASIRPRQLGNGFFYGGLRLLLGALVGWSVALALQLPPLAQGVLVVQSSMPVAVFNYLYALRGNRSPDQVASLVLCSTLLSFAFIPLLLTWWLPALR | failed
MPAGLVISAPASGVGKTTLTLALARAWRNRGLSVQCFKSGPDYIDPAFHAAATGRASVNVDSWAMDRGGIAHLVGRGADADVVLAEGSMGLFDGVAARGVSGTGATADIAEMLGWPVLLVIDPSGQAQTAAAIAAGLRDYRPGVRLAGVVLNRVASPRHEDLVRRALDDAGIAVFGALPRHAEISLPKRHLGLVQAEEQAEIGKLIDEAARFVAEHVDLDAVLQSAAAWAPQPAANGLNVTPPGQRIALARDAAFSFVYPHMLEAWRAAGADISTFSPLADEAPDASADVCWLPGGYPELHAGKIAANARFCSGLRAFAETRPVHGECGGYMVLGTALTDADGVRHEMAGLLGLETSFAKRRMHLGYRLAELAAPMPGHSPGARLRGHEFHYSTIAAQPDMPLAVVHDATGAVIAETGSRRGNATGTFFHLIAEDRLEHHHHHH | not failed
MNLPNKLTVLRIFMIPIFIIIVSVPMDWGTISFGDTTLAVTQLVGAIIFAVASFTDWLDGKIARAQGLVTNFGKFADPLADKMLVMTAFIVLVGQGKVPAWIVAIIVCRELAVTGLRLLLVEHGEVMAAAWPGKVKTATQMVAIILLFINNIPFSALHLPLDQIMLYACLIFTIYSGVDYFAKNKDVFKGSM | failed
MSINDVAKLFGSAWIVMMADVDAASILTGVADGQTYGYRLIILLLVLTLPLYIVQEAAGRVGAVNNGKGLGTLLREKFSQKFALTAAIPMFLVDLFTYVVEYVGIAVGSLMIGVPVYISLPLFFVIHLSIVLTRTYEKMEKTLLGISFFLVIAFIVQAFLRGVSPNQQLLYFSASKSFLFFLAANIGAVVMPFMIFYQASATAYKYNNSALSKDVKVKWSSMETFIGALVSELLMVAIEISTTGLSSSIDPLNYREMSYALSAISGIYSPYVFGIGLICGGLLALIVESLGSAWGTLEALNKHNHRNTTLLYVFESVPAIIIASIFSQNYDQIVNTVLSLMSVTPIIVFIPAFFVGLLVGDEKIMGKYSYSRRRMVIYWITVVILLISGIMSLL | failed
MTALRQDIDPNGLLEYSVVYTDRALNHMSKAFQEVMNDLLSNLKTVYNAEAAVIIPGSGTYGMEAVARQLTIDEDCLIIRNGWFSYRWTQILEKGKFAKSSTVLTAERTEDTEAPKPFAPVDIETAVAKIKEDKSAIVYAPHVETSSGIILSEEYIKALSEAVHSVGGLLVIDCIASGCVWLDMKELGIDVLISAPQKGWSSTPCAGLVMLSAAAIKKVESTESNCFSLDLKQWLTIMRAYENGGHAYHATMPTDSLRQFRDAILEAKEIGFDILRDAQWELGNRVRKVLTDKGIESVAAEGFEAPGVVVSYTERDDMHKGSAFAEAGLQIAAGVPLKVGEPDNFKTFRLGLFGLDKLTDIDGTVERFEKALDEVLAK | not failed
SLAGETINFCKGWKFHLGDAGKGASSSSYNDSQWRILNIPHDWSIEGTYKQFENGTDWQSGFLPAGISWYRKTFTIPSKWKNKKVQILFEGVYLNSEVWINGHWLGKRPNGYISFVYDLTPYLQEGKNQIAVKVDHSKALTGRWYTGSGIYRPVYLLVSNPTHIPYSGIHFRSKLQNKQSATYTLSIEIETQEKKPIKVKTYLQAPNGSIADTSEKIFVSSADSLCFLSGSIRKPLLWSPDSPNVYTLICQLTRDNKILDECRLPVGFRQLEFNPVSGFLLNGKSLKIKGVCDHHTVGAVGAAVPDDLLHYRLKLLKDMGCNAIRTSHNPFSPAFYNLCDTMGIMVLNEGLDGWNQPKAADDYGNYFDEWWQKDMTDFIKRDRNHPSIIMWSIGNEVTGATPEIQHNLVSLFHQLDPDRPVTQGGTDPTRGMKTDYQKKFNYLDIIGFNGNGEEIGELEHFHKNYPTLCAIATEVPHTYQTRGVYRSQTQWRRRDFPAPWEKGNINWEQFKHRVFPIPDLTEKECFPEESDYPYYQSSYDNASVRISARKSWQRTCSFPWLMGEFRWGSFDYLGEAEWPQRCGNFGIIDIAAIPKDAYFLYQSLWTDKPMVHLLPHWTHPGKEGKTIPVVIYTNCDAVELFINNVSLGSKPYTGEQLIWLVPYSPGKIEARGIKKGKIVATDCYQSAEAPHSVALASNKYSVKAGSDEVIRIEIDITDKNGIPCPYASNELSFHVSGPLRLLGVDNGNPTDMFPYQQPHCRCFRGKCVVLLQSDEEKGKGTLTVQGTKLVEKKLIIEVIEG | not failed
MMQPLQLSAGGFAVVLGTNEIASAVAVHLHREGCCVVMSHDPFPPVIRRKMAFHDALYGDEVTVEGVRGERVDHATQIFKALRRSDNVLVSWLALPDLLPIGAVDVLIDARMQKHRVTPDLRGLARISVGLGPGFSTAVNCDVAIETRPGRSGLIVGAGWTDAADGVASPLGGVGAERFEYSQASGRWRTAVEIGSRVFSGFTIGHLGGVPVRAPCDGILRGVVRDGQDVPQGVKLLEVDSRGRHAQWTGIDDRGRGIAKAVLRAVQPQAEIRTSYAAQPIAVFLEHHHHHH | not failed
MQLPTQQVAVLDAASTDDPQRIEALAADTDYPPETIAGAALALEAEGLVAVTETTTTTVSLTDEGHAYATDGLPEVRLYRAALDAGADDAPVEMGSVIGAAGLDGPQVDIALSNYARKGYGTIDSGALAADPDADPENDPEADALATLTDGDSVDDDAVVDQLASRDLVTVSERTVRSVTLTEAGVTELMAGVEATDEVGELTPELLASGEWADVEFADYNVAADAADHTPGKTHVLRQAAERVTDVLVGMGFQEMAGPHVDADFYINDCLFMPQDHPARNHWDRFALSNPARIDELPDALVERVERAHREGAGDDGDGYHSPWDEDFARALALRGHTTSLTARHLAGLADADVEAPARYFSVEKAYRNDTLDATHLLEFFQIEGWVLADDLSVRDLMGTFREFYSQFGIHDLQFKPTYNPYTEPSFELFGRHPETGELIEIGNSGIFRPEMLDPLDVDGDVMAWGLALERLLMLMTGFEDIRDVHGTLCDVGFLRNAEVVY | failed
MSTPDGDEKEQCFHRAIAKTSIYLDREPGNPELTVWLAINKASLAGAQGGFGALSLAKEAKSLLEGVIATSPQTLDGSAYTSLGSLYYKVPGWPIGFGDDDKAEEMLKKALEINPKGIDPNYFYGDFLAEEGRDKEAKVYLTRAMQASPRPLEHHHHHH | failed
MNNAMQLLQPYPFKKLRALLGSVTPNPEKRPVALSIGEPKHRSPDFVAKALADNLDQMAVYPTTLGIPALREAIAGWCNRRFGVPQGWIDPARNVLPVNGTREALFAFTQTVVNRSDDGLVVSPNPFYQIYEGAAFLAGAQPHYLPCLSDNGFNPDFDAVDADIWKRCQILFLCSPGNPTGALIPVETLKKLIALADEHDFVIAADECYSELYFDEQTPPPGLLSACVELGRQDFKRCVVFHSLSKRSNLPGLRSGFVAGDAEILKAFLLYRTYHGCAMPVQTQLASIAAWNDEEHVRANRDLYREKFDAVLDILAPVLDVQRPDGGFYLWPNVGTDDAAFCRDLFVDQHVTAVPGSYLSREVDGVNPGAGRVRLALVAPLAECIEAAERIRAFVLK | not failed
MIYENHANTAENNGPLALVLGANGGVGSHVLKMLLQRGWQVRALTRQRVAAGASDGIERVTGDVMNRQDVMDAAKGATLIVHAVNPPGYRDWERQVLPMLDNTIAAAEACGARILLPGTVYNFGPDAFPLLKEDSPQQPFTRKGALRVEMERRLKMASMRGVPVLIVRAGDFFGPDAKNNWFSQMLVRPGKPVRSVQNPAAPHAGHQWAYLPDVAETIGRLLDRSGELPPFAVYHMEGFWDFDGLQLVGAIERAVGRPVKMRRMSWLAIKLAAPFVPLFREVLEMQYLWHMPLRMSNGKLTDFLGAEPKTPVDIAVSATLTSLGCIEQPRVPASLHRPVDAGGRV | failed
MLSALIWGPIFGAILIAIIPNPDHDCYSRKIALGIMVAMAGLSVLLAGQFNISDPQMQFVEYYPWLPSLGLNYHLGVDGLSLPLLLLNSALVVIAIFSTNTEIERPRFYYALLLLLSGGVAGAFLAQDLLLFFLFFELEIIPLYFLIAIWGGQRRGYAAMKFLLYTALSGFLVLVSFLGWFWLTKAPNFDYNPSLADALPVKTQMLLLLPLLLGLGIKIPIFPFHTWLPDAHVEASTPVSVLLAGVLLKLGTYGLLRFGLGLYLEAWVEFAPYLATLAAISALYGASCAIAQKDMKKVVAYSSIAHMGYILLAAAAATRLSVTAASAQMVSHGIISALLFLLVGVVYKKTGSRDVDKLQGLLTPERGLPITGSLMILGVMASAGIPGMVGFIAEFLVFRGSFPIFPTQTLLCLIGSGLTAVYFLLMINRVFFGRLTMELSHLPKVRWQEQIPAIALAVVIIALGIQPHWLTQWSEPQTAVLLTGHPDLVSVPAPPRIEIEVKELGEV | failed
